Assay [1] concerns the target Arabidopsis thaliana dihydrodipicolinate synthase 2 (At-DHDPS2) (Arabidopsis thaliana) (UniProt Q9FVC8). The experiment in a line: AUC; sedimentation velocity, c(s) analysis (SEDFIT); 20 mM Tris-HCl, 150 mM NaCl, pH 8.0, 20°C; At-DHDPS2 at 0.75 mg/mL, 50,000 rpm; At-DHDPR2 at 0.1-1.6 mg/mL, 40,000 rpm.
The target is the same in assay [2]. Put plainly: SEC-MALS; Malvern P3000 column with Viscotek TDA (refractive index, low angle and right angle light scattering); 100 µL of 1.0 mg/mL; 20 mM Tris-HCl, 150 mM NaCl, pH 8.0; 28°C.

Chain of Arabidopsis thaliana dihydrodipicolinate synthase 2 (At-DHDPS2) (Q9FVC8 40-365): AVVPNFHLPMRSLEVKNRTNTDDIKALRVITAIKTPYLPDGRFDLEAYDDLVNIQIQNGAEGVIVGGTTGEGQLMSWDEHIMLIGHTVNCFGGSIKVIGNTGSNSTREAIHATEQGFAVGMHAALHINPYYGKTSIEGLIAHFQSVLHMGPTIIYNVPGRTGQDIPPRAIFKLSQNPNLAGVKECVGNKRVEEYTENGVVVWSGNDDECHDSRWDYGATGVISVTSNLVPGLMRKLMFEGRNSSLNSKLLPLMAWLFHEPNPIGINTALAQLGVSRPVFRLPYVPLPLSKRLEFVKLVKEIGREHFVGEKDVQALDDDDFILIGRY

By stoichiometry N is commonly meant a count of units in the complex or per binding partner. Turning to “Arabidopsis thaliana dihydrodipicolinate synthase 2 (At-DHDPS2) (from UniProt Q9FVC8 40-365) (enzyme)”, the stoichiometry N in assay [1] and in assay [2] was 4 each time.

These data come from paper PMC3390394.
